Biological target: T1, Soluble Aβ 1-40 (UniProt P05067 672-711)
T1 construct: domain: Aβ 1-40; Unaggregated, predominantly monomeric peptide flowed over captured antibody; The numbers 1-40 count on the Aβ peptide, not on the APP precursor
Experiment: BIAcore SPR, alternate method: antibody captured on protein A or A/G, Aβ 1-40 in flow, 5 hour dissociation, 1:1 model with mass transfer; alternate method: antibody captured on protein A or A/G, 5 hour dissociation
Method: Protein A or protein A/G is immobilized via amine coupling to flow cells 1 and 2 of a B1 or CM5 sensor chip (BIAcore). The test antibody is then captured in flow cell 2 at desired levels (usually a 10-60 second injection of antibody) and 5 minutes is allowed for the antibody to stabilize. […] Each concentration is injected over the surface for 5 minutes at a flow rate of 50 μL/min. […] Aβ 1-40 and antibody are then eluted from both flow cells with a 40 second injection of glycine (pH 1.5). The signal is allowed to stabilize for 2 minutes before the next cycle. The data from flow cell 1 is subtracted from flow cell 2 to account for any bulk shifts due to buffer differences or non-specific binding to the sensor chip or protein A. The various concentrations are injected randomly and each concentration is run in duplicate. Two 0 nM runs are used to control for any dissociation of antibody from the protein A or A/G capture surface. The data is analyzed using the Biaevalution software. A 1:1 model with mass transfer and a local Rmax is used as the best fit for the data.

Kd: 0.4 nM
B1: humanized 266 antibody (antibody, human IgG1, kappa, V domains shown)
VH: EVQLVESGGGLVQPGGSLRLSCAASGFTFSRYSMSWVRQAPGKGLELVAQINSVGNSTYYPDTVKGRFTISRDNAKNTLYLQMNSLRAEDTAVYYCASGDYWGQGTLVTVSS
VL: DVVMTQSPLSLPVTLGQPASISCRSSQSLIYSDGNAYLHWFLQKPGQSPRLLIYKVSNRFSGVPDRFSGSGSGTDFTLKISRVEAEDVGVYYCSQSTHVPWTFGQGTKVEIKR

— patent publication US20040241164A1 (published 2004)
